In the supplement of paper PMC10567573 one finds protein stability index data, which are given here for 94 variants.

B1: ADD1 (parent)
chain: FASDGDSGTCSPLRHSFQKQQREK
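Note: lentivirally expressed fusions sorted by FACS into six bins by GFP to DsRed ratio, PSI derived from sequencing read proportions per bin multiplied by bin number.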

In the series the parent is B1. The series is described as follows: protein stability index of a GFP-peptide fusion (GPS, HEK-293T) (PSI 1-6); higher = more stable. Conditions: c terminus: a fixed tail appended.
As for FASDGDSGTCSPLRHSAQKQQREK [F17A], the protein stability index came out at 3.68.

Consider FASDGDSGTCSPLRHSGQKQQREK [F17G], for which the protein stability index turned out to be 3.44.

In the case of FASDGDSGTCSPLRHSNQKQQREK [F17N], the protein stability index was 4.42.

Regarding FASDGDSGTCSPLRHSVQKQQREK [F17V], the protein stability index is 3.71.

Regarding FASDGDSGTCSPLRHSHQKQQREK [F17H], the protein stability index was 3.65.

For the variant FASDGDSGTCSPLRHSSQKQQREK [F17S], the protein stability index was found to be 4.47.

In the case of FASDGDSGTCSPLRHSTQKQQREK [F17T], the protein stability index turned out to be 3.46.

For the variant FASDGDSGTCSPLRHSLQKQQREK [F17L], the protein stability index came out at 4.71.

On to FASDGDSGTCSPLRHSMQKQQREK [F17M], for which the protein stability index was determined as 3.95.

Consider FASDGDSGTCSPLRHSIQKQQREK [F17I], for which the protein stability index amounted to 3.87.

For FASDGDSGTCSPLRHSPQKQQREK [F17P], the protein stability index was found to be 4.82.

Take FASDGDSGTCSPLRHSYQKQQREK [F17Y]: the protein stability index came out at 3.79.

Regarding FASDGDSGTCSPLRHSQQKQQREK [F17Q], the protein stability index was determined as 4.52.

Regarding FASDGDSGTCSPLRHSCQKQQREK [F17C], the protein stability index worked out at 4.17.

Take FASDGDSGTCSPLRHSDQKQQREK [F17D]: the protein stability index is 4.62.

For the variant FASDGDSGTCSPLRHSEQKQQREK [F17E], the protein stability index worked out at 4.34.

For FASDGDSGTCSPLRHSKQKQQREK [F17K], the protein stability index is 3.95.

For FASDGDSGTCSPLRHSRQKQQREK [F17R], the protein stability index is 4.1.

With FASDGDSGTCSPLRHSWQKQQREK [F17W], the protein stability index stood at 3.72.

For FASDGDSGTYSPLRHSFQKQQREK [C10Y], the protein stability index is 1.63.

Turning to FASDGDSGTTSPLRHSFQKQQREK [C10T], the protein stability index was 4.44.

Take FASDGDSGTVSPLRHSFQKQQREK [C10V]: the protein stability index is 3.85.

As to FASDGDSGTCSPQRHSFQKQQREK [L13Q], the protein stability index worked out at 4.95.

For FASDGDSGTCSPIRHSFQKQQREK [L13I], the protein stability index stood at 3.97.

As to FASDGDSGTCSPTRHSFQKQQREK [L13T], the protein stability index was determined as 4.98.

On to FASDGDSGTCSPNRHSFQKQQREK [L13N], for which the protein stability index was determined as 4.26.

As to FASDGDSGTCSPYRHSFQKQQREK [L13Y], the protein stability index was 2.13.

As to FASDGDSGTCSPARHSFQKQQREK [L13A], the protein stability index was found to be 4.98.

For FASDGDSGTCSPMRHSFQKQQREK [L13M], the protein stability index came to 4.02.

As for FASDGDSGTCSPHRHSFQKQQREK [L13H], the protein stability index amounted to 5.09.

With FASDGDSGTCSPRRHSFQKQQREK [L13R], the protein stability index came out at 5.28.

Turning to FASDGDSGTCSPERHSFQKQQREK [L13E], the protein stability index was 4.89.

FASDGDSGTCSPPRHSFQKQQREK [L13P]: the protein stability index amounted to 4.1.

Consider FASDGDSGTCSPGRHSFQKQQREK [L13G], for which the protein stability index came to 4.22.

FASDGDSGTCSPFRHSFQKQQREK [L13F]: the protein stability index amounted to 2.39.

For the variant FASDGDSGTCSPVRHSFQKQQREK [L13V], the protein stability index turned out to be 5.

As to FASDGDSGTCSPCRHSFQKQQREK [L13C], the protein stability index stood at 4.25.

As to FASDGDSGTCSPSRHSFQKQQREK [L13S], the protein stability index was 4.55.

Turning to FASDGDSGTCSPKRHSFQKQQREK [L13K], the protein stability index amounted to 4.57.

On to FASDGDSGTCSPDRHSFQKQQREK [L13D], for which the protein stability index stood at 4.72.

As for FASDGDSGTCSPLRHSFQKCQREK [Q20C], the protein stability index came to 2.97.

With FASDGDSGTCSPLRHSFQKGQREK [Q20G], the protein stability index came to 3.98.

As to FASDGDSGTCSPLRHSFQKDQREK [Q20D], the protein stability index stood at 4.23.

As to FASDGDSGTCSPLRHSFQKIQREK [Q20I], the protein stability index is 3.2.

In the case of FASDGDSGTCSPLRHSFQKPQREK [Q20P], the protein stability index amounted to 3.65.

Take FASDGDSGTCSPLRHSFQKWQREK [Q20W]: the protein stability index was 3.22.

Take FASDGDSGTCSPLRHSFQKSQREK [Q20S]: the protein stability index was determined as 4.55.

Take FASDGDSGTCSPLRHSFQKVQREK [Q20V]: the protein stability index came to 3.71.

For the variant FASDGDSGTCSPLRHSFQKAQREK [Q20A], the protein stability index was found to be 4.18.

For the variant FASDGDSGTCSPLRHSFQKYQREK [Q20Y], the protein stability index is 2.65.

Regarding FASDGDSGTCSPLRHSFQKKQREK [Q20K], the protein stability index came to 3.96.

As to FASDGDSGTCSPLRHSFQKNQREK [Q20N], the protein stability index was 3.65.

FASDGDSGTCSPLRHSFQKRQREK [Q20R]: the protein stability index was 4.05.

Consider FASDGDSGTCSPLRHSFQKHQREK [Q20H], for which the protein stability index is 3.71.

Regarding FASDGDSGTCSPLRHSFQKFQREK [Q20F], the protein stability index is 2.8.

With FASDGDSGTCSPLRHSFQKMQREK [Q20M], the protein stability index was found to be 3.07.

As for FASDGDSGTCSPLRHSFQKTQREK [Q20T], the protein stability index amounted to 4.07.

FASDGDSGTCSPLRHSFQKEQREK [Q20E]: the protein stability index was 4.16.

In the case of FASDGDSGTCSPLRHSFQKLQREK [Q20L], the protein stability index was 2.69.

On to FASDGDSGTCSPLRHDFQKQQREK [S16D], for which the protein stability index came out at 4.82.

Consider FASDGDSGTCSPLRHMFQKQQREK [S16M], for which the protein stability index turned out to be 2.46.

On to FASDGDSGTCSPLRHAFQKQQREK [S16A], for which the protein stability index was 3.52.

FASDGDSGTCSPLRHGFQKQQREK [S16G]: the protein stability index was determined as 3.54.

On to FASDGDSGTCSPLRHPFQKQQREK [S16P], for which the protein stability index worked out at 2.28.

With FASDGDSGTCSPLRHNFQKQQREK [S16N], the protein stability index came to 4.35.

On to FASDGDSGTCSPLRHCFQKQQREK [S16C], for which the protein stability index turned out to be 2.24.

As for FASDGDSGTCSPLRHKFQKQQREK [S16K], the protein stability index came to 4.59.

Regarding FASDGDSGTCSPLRHYFQKQQREK [S16Y], the protein stability index turned out to be 3.88.

Regarding FASDGDSGTCSPLRHVFQKQQREK [S16V], the protein stability index came to 2.31.

FASDGDSGTCSPLRHIFQKQQREK [S16I]: the protein stability index was determined as 1.99.

With FASDGDSGTCSPLRHWFQKQQREK [S16W], the protein stability index stood at 2.75.

As to FASDGDSGTCSPLRHLFQKQQREK [S16L], the protein stability index was 3.17.

Take FASDGDSGTCSPLRHHFQKQQREK [S16H]: the protein stability index is 4.27.

On to FASDGDSGTCSPLRHFFQKQQREK [S16F], for which the protein stability index was 2.84.

As for FASDGDSGTCSPLRHQFQKQQREK [S16Q], the protein stability index is 4.27.

For FASDGDSGTCSPLRHRFQKQQREK [S16R], the protein stability index amounted to 3.89.

With FASDGDSGTCSFLRHSFQKQQREK [P12F], the protein stability index is 3.02.

On to FASDGDSGTCSSLRHSFQKQQREK [P12S], for which the protein stability index is 3.67.

As to FASDGDSGTCSILRHSFQKQQREK [P12I], the protein stability index is 3.37.

Turning to FASDGDSGTCSRLRHSFQKQQREK [P12R], the protein stability index was found to be 4.6.

In the case of FASDGDSGTCSKLRHSFQKQQREK [P12K], the protein stability index was 3.3.

For FASDGDSGTCSLLRHSFQKQQREK [P12L], the protein stability index was 3.88.

Turning to FASDGDSGTCSCLRHSFQKQQREK [P12C], the protein stability index came to 2.73.

In the case of FASDGDSGTCSELRHSFQKQQREK [P12E], the protein stability index worked out at 3.93.

With FASDGDSGTCSYLRHSFQKQQREK [P12Y], the protein stability index was found to be 3.86.

Turning to FASDGDSGTCSTLRHSFQKQQREK [P12T], the protein stability index amounted to 4.59.

For the variant FASDGDSGTCSDLRHSFQKQQREK [P12D], the protein stability index came out at 4.34.

As to FASDGDSGTCSALRHSFQKQQREK [P12A], the protein stability index came to 4.76.

For the variant FASDGDSGTCSVLRHSFQKQQREK [P12V], the protein stability index turned out to be 3.89.

As for FASDGDSGTCSNLRHSFQKQQREK [P12N], the protein stability index was 4.95.

Turning to FASDGDSGTCSQLRHSFQKQQREK [P12Q], the protein stability index was found to be 4.79.

In the case of FASDGDSGTCSGLRHSFQKQQREK [P12G], the protein stability index stood at 4.73.

Turning to FASDGDSGTCSMLRHSFQKQQREK [P12M], the protein stability index stood at 4.39.

For FASDGDSGTCSHLRHSFQKQQREK [P12H], the protein stability index worked out at 3.91.
